Experimental data reported in publication PMC3886899 (Nature, 2013).

Molecular target: SAMHD1(26-626) (human, UniProt Q9Y3Z3 26-626)
Assay: SEC

Chain of SAMHD1(26-626) (Q9Y3Z3 26-626): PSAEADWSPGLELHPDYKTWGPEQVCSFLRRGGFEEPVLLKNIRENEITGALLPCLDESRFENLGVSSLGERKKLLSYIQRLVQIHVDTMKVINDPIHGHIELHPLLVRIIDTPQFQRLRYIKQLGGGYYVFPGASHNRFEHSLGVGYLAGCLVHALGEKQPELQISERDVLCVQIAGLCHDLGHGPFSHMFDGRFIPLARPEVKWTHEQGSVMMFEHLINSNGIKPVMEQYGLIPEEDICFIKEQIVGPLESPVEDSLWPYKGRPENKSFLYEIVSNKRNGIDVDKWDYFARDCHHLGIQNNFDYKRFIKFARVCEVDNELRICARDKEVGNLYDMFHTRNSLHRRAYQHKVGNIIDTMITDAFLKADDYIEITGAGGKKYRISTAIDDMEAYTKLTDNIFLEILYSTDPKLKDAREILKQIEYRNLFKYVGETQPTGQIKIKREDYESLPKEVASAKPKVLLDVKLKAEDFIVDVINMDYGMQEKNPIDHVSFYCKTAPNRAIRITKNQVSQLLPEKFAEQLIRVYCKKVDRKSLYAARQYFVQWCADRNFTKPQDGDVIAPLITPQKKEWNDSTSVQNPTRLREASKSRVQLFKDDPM

B1: Vpxsm/DCAF1-CtD (complex)
chain 1: MSDPRERIPPGNSGEETIGEAFDWLDRTVEEINRAAVNHLPRELIFQVWRRSWEYWHDEMGMSVSYTKYRYLCLIQKAMFMHCKKGCRCLGGEHGAGGWRPGPPPPPPPGLA
chain 2: not shown
  binding result: binds
